Positions of bridges follow the written chain, without caps; N, C: chain ends. Non-standard residues stand in square brackets, D forms with d. No end group written: not given here. hCys = N[C@@H](CCS)C(=O)O; Orn = NCCC[C@H](N)C(=O)O; Dab = NCC[C@H](N)C(=O)O

As a reminder, the IC50 is the concentration that inhibits the measured activity by half. Read a low IC50 as greater potency in that assay.

The experiment deals with TEAD. As to the kind of experiment: IC50 for TEAD binding; method not named in the example (TR-FRET test is the filing's screening method). For orientation: Time-resolved FRET reads energy transfer from a long-lived donor to a nearby acceptor.
TEAD, sequence (P28347 209-426): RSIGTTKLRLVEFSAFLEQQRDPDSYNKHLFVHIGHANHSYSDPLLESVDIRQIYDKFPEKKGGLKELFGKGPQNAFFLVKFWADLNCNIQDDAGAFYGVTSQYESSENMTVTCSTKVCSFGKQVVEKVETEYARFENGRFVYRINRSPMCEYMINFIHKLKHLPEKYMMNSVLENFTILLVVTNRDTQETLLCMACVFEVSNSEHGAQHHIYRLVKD

As to VPF[hCys]LR[Dab]LPDSFCKPPE (disulfide 4-13) [polypeptide of SEQ ID NO.: 6 (VPF(Hcy)LR(Dab)…)], the IC50 came out at 28 nM. As for VPF[hCys]LR[Orn]LPDSFCKPPE (disulfide 4-13) [polypeptide of SEQ ID NO.: 5 (VPF(Hcy)LR(Orn)…)], the IC50 came to 43 nM.

The values are drawn from patent publication US20170319648A1.
